Measurements: patent US20230174604A1 (Innovent, published 2023)

Biological target: T1, IL-2Rα-Biotin (biotin-labeled human IL-2Rα, UniProt P01589 aa22-217, with C-terminal avi tag and His6 tag) (human, UniProt P01589 22-217, biotin on the avi tag (enzymatic labeling with BirA))
T1 construct: Expressed in HEK293-F, monomer peak collected; loaded on SA sensor or used to stain yeast; also called CD25; IL-2Rα receptor
T1 sequence: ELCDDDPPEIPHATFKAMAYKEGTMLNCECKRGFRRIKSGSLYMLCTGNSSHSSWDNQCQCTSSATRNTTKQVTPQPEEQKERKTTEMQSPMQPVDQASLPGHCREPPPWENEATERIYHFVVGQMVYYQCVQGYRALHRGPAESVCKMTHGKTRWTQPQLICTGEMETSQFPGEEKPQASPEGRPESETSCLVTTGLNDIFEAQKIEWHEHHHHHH
Test: flow cytometry, yeast-displayed IL-2 stained with IL-2Rα-Biotin
Protocol: Yeast cells comprising a single mutant sequence after sequencing were induced by shaking at 20° C. for 24 h to display IL-2^mutant, and stained together with their receptors IL-2Rα-Biotin and IL-2Rβ IH-Biotin, respectively. The specific steps were as follows: [0191] […] 1. 1×10⁶ cells from each sample were centrifuged to discard the supernatant, and washed with FACS buffer once for later use; [0193] 2. the cells were added to 100 μL of FACS buffer containing 50 nM IL-2Rα-Biotin and Anti Flag antibody, and incubated at room temperature for 30 min; [0194] 3. the mixture was centrifuged at 3000 rpm at 4° C. for 3 min, and washed twice with pre-cooled FACS buffer; [0195] 4. […] 5. after being washed twice with pre-cooled FACS buffer, the cells were resuspended in 100 μL of buffer, and the binding level of IL-2^mutant to IL-2Rα was assayed by a flow cytometer (BD, ACCURI C6). [0197] II. […] 1. 1×10⁶ cells from each sample were centrifuged to discard the supernatant, and washed with FACS buffer once for later use; [0199] 2. the cells were added to 100 μL of FACS buffer containing IL-2Rβ IH-Biotin (30 nM-100 nM) and Anti Flag antibody, and incubated at room temperature for 30 min; [0200] 3. following steps 3-5 described above, the binding level of IL-2′ to IL-2Rβ was assayed.

B1: IL-2^3X displayed on the surface of yeasts (ligand)
chain: APTSSSTKKTQLQLEHLLLDLQMILNGINNYKNPKLTDMLTFEFYMPKKATELKHLQCLERELKPLEEVLNLAQSKNFHLRPRDLISNINVIVLELKGSETTFMCEYADETATIVEFLNRWITFSQSIISTLT
notes: control in the flow cytometry staining
  binding result: no binding (tested: 50 nM IL-2Rα-Biotin)
